Source: patent US20250027945A1

What was measured:
[1] = molecular target: human RYK on the surface of human tumor cell lines (human) (UniProt P34925); assay: flow cytometry, REH cells (ALL), isotype matched control mAb, equal amount
[2] = molecular target: human RYK on the surface of human tumor cell lines (human) (UniProt P34925); assay: flow cytometry, EW36 cells (NHL), isotype matched control mAb, equal amount
[3] = molecular target: human RYK on the surface of human tumor cell lines (human) (UniProt P34925); assay: flow cytometry, K562 cells (CML), isotype matched control mAb, equal amount
[4] = molecular target: human RYK on the surface of human tumor cell lines (human) (UniProt P34925); assay: flow cytometry, MEC1 cells (CLL), isotype matched control mAb, equal amount
[5] = molecular target: human RYK on the surface of human tumor cell lines (human) (UniProt P34925); assay: flow cytometry, A549 cells (lung), isotype matched control mAb, equal amount
[6] = molecular target: human RYK on the surface of human tumor cell lines (human) (UniProt P34925); assay: flow cytometry, H292 cells (lung), isotype matched control mAb, equal amount
[7] = molecular target: human RYK on the surface of human tumor cell lines (human) (UniProt P34925); assay: flow cytometry, H446 cells (lung), isotype matched control mAb, equal amount
[8] = molecular target: human RYK on the surface of human tumor cell lines (human) (UniProt P34925); assay: flow cytometry, H460 cells (lung), isotype matched control mAb, equal amount
[9] = molecular target: human RYK on the surface of human tumor cell lines (human) (UniProt P34925); assay: flow cytometry, NALM6 cells (ALL), isotype matched control mAb, equal amount
[10] = molecular target: human RYK on the surface of human tumor cell lines (human) (UniProt P34925); assay: flow cytometry, HT144 cells (skin), isotype matched control mAb, equal amount
[11] = molecular target: human RYK on the surface of human tumor cell lines (human) (UniProt P34925); assay: flow cytometry, HT29 cells (colon), isotype matched control mAb, equal amount
[12] = molecular target: human RYK on the surface of human tumor cell lines (human) (UniProt P34925); assay: flow cytometry, HS683 cells (brain), isotype matched control mAb, equal amount
[13] = molecular target: human RYK on the surface of human tumor cell lines (human) (UniProt P34925); assay: flow cytometry, JEKO cells (mantle), isotype matched control mAb, equal amount
[14] = molecular target: human RYK on the surface of human tumor cell lines (human) (UniProt P34925); assay: flow cytometry, MCF7 cells (breast), isotype matched control mAb, equal amount
[15] = molecular target: human RYK on the surface of human tumor cell lines (human) (UniProt P34925); assay: flow cytometry, MINO cells (mantle), isotype matched control mAb, equal amount
[16] = molecular target: human RYK on the surface of human tumor cell lines (human) (UniProt P34925); assay: flow cytometry, SW620 cells (colon), isotype matched control mAb, equal amount
[17] = molecular target: human RYK on the surface of human tumor cell lines (human) (UniProt P34925); assay: flow cytometry, SW948 cells (colon), isotype matched control mAb, equal amount
[18] = molecular target: human RYK on the surface of human tumor cell lines (human) (UniProt P34925); assay: flow cytometry, T24 cells (bladder), isotype matched control mAb, equal amount
[19] = molecular target: human RYK on the surface of human tumor cell lines (human) (UniProt P34925); assay: flow cytometry, BT549 cells (breast), isotype matched control mAb, equal amount
[20] = molecular target: human RYK on the surface of human tumor cell lines (human) (UniProt P34925); assay: flow cytometry, PC3 cells (prostate), isotype matched control mAb, equal amount
[21] = molecular target: human RYK on the surface of human tumor cell lines (human) (UniProt P34925); assay: flow cytometry, SKBR3 cells (breast), isotype matched control mAb, equal amount
[22] = molecular target: human RYK on the surface of human tumor cell lines (human) (UniProt P34925); assay: flow cytometry, T47-D cells (breast), isotype matched control mAb, equal amount
[23] = molecular target: human RYK on the surface of human tumor cell lines (human) (UniProt P34925); assay: flow cytometry, NCI H226 cells (lung), isotype matched control mAb, equal amount
[24] = molecular target: human RYK on the surface of human tumor cell lines (human) (UniProt P34925); assay: flow cytometry, SH-SY5Y cells (brain), isotype matched control mAb, equal amount
[25] = molecular target: human RYK on the surface of human tumor cell lines (human) (UniProt P34925); assay: flow cytometry, SK-MEL-2 cells (skin), isotype matched control mAb, equal amount
[26] = molecular target: human RYK on the surface of human tumor cell lines (human) (UniProt P34925); assay: flow cytometry, SK-MES-1 cells (lung), isotype matched control mAb, equal amount
[27] = molecular target: human RYK on the surface of human tumor cell lines (human) (UniProt P34925); assay: flow cytometry, HS-578T cells (breast), isotype matched control mAb, equal amount
[28] = molecular target: human RYK on the surface of human tumor cell lines (human) (UniProt P34925); assay: flow cytometry, NCI H1155 cells (lung), isotype matched control mAb, equal amount
[29] = molecular target: human RYK on the surface of human tumor cell lines (human) (UniProt P34925); assay: flow cytometry, OVCAR4 cells (ovarian), isotype matched control mAb, equal amount
[30] = molecular target: human RYK on the surface of human tumor cell lines (human) (UniProt P34925); assay: flow cytometry, DU-145 cells (prostate), isotype matched control mAb, equal amount
[31] = molecular target: human RYK on the surface of human tumor cell lines (human) (UniProt P34925); assay: flow cytometry, SK-OV-3 cells (ovarian), isotype matched control mAb, equal amount
[32] = molecular target: human RYK on the surface of human tumor cell lines (human) (UniProt P34925); assay: flow cytometry, CAPAN-1 cells (pancreas), isotype matched control mAb, equal amount
[33] = molecular target: human RYK on the surface of human tumor cell lines (human) (UniProt P34925); assay: flow cytometry, CAPAN-2 cells (pancreas), isotype matched control mAb, equal amount
[34] = molecular target: human RYK on the surface of human tumor cell lines (human) (UniProt P34925); assay: flow cytometry, MOLT4 cells (T-cell ALL), isotype matched control mAb, equal amount
[35] = molecular target: human RYK on the surface of human tumor cell lines (human) (UniProt P34925); assay: flow cytometry, RAJI cells (Burkitt NHL), isotype matched control mAb, equal amount
[36] = molecular target: human RYK on the surface of human tumor cell lines (human) (UniProt P34925); assay: flow cytometry, COLO 829 cells (melanoma), isotype matched control mAb, equal amount
[37] = molecular target: human RYK on the surface of human tumor cell lines (human) (UniProt P34925); assay: flow cytometry, JURKAT cells (T-cell ALL), isotype matched control mAb, equal amount
[38] = molecular target: human RYK on the surface of human tumor cell lines (human) (UniProt P34925); assay: flow cytometry, MDA-MB-231 cells (breast), isotype matched control mAb, equal amount
[39] = molecular target: human RYK on the surface of human tumor cell lines (human) (UniProt P34925); assay: flow cytometry, RAMOS cells (Burkitt NHL), isotype matched control mAb, equal amount
[40] = molecular target: human RYK on the surface of human tumor cell lines (human) (UniProt P34925); assay: flow cytometry, A673 cells (Ewings sarcoma), isotype matched control mAb, equal amount
[41] = molecular target: human RYK on the surface of human tumor cell lines (human) (UniProt P34925); assay: flow cytometry, U937 cells (monocyte cancer), isotype matched control mAb, equal amount
[42] = molecular target: human RYK on the surface of human tumor cell lines (human) (UniProt P34925); assay: flow cytometry, HELA cells (ovarian as printed), isotype matched control mAb, equal amount
[43] = molecular target: human RYK on the surface of human tumor cell lines (human) (UniProt P34925); assay: flow cytometry, NCI H929 cells (melanoma as printed), isotype matched control mAb, equal amount
[44] = molecular target: human RYK on the surface of human tumor cell lines (human) (UniProt P34925); assay: flow cytometry of dissociated primary triple-negative breast cancer PDX cells M0026 (T1), fluorochrome-conjugated isotype control mAb; count 15903

Sequence of human RYK on the surface of human tumor cell lines (human) (P34925 46-607 limits assumed, form in doubt): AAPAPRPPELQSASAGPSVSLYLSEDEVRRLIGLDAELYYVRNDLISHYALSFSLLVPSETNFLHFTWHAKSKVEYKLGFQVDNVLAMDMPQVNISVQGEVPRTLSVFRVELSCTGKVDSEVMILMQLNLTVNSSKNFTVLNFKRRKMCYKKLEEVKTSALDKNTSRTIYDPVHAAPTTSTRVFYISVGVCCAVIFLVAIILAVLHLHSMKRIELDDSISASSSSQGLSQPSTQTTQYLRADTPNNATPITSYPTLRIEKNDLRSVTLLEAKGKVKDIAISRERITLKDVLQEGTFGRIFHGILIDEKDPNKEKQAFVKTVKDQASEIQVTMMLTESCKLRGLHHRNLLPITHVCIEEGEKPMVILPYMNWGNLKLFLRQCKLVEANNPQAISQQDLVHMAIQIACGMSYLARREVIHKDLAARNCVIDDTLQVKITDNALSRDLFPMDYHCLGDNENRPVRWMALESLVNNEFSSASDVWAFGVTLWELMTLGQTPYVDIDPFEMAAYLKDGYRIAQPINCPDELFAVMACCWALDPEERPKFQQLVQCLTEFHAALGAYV

- MFI [1]: 7.4
- MFI [2]: 5.6
- MFI [3]: 2.8
- MFI [4]: 4.3
- MFI [5]: 4.8
- MFI [6]: 107
- MFI [7]: 23.3
- MFI [8]: 58
- MFI [9]: 5.7
- MFI [10]: 126
- MFI [11]: 100
- MFI [12]: 229
- MFI [13]: 3.9
- MFI [14]: 5.2
- MFI [15]: 7.6
- MFI [16]: 5.6
- MFI [17]: 30.7
- MFI [18]: 72.6
- MFI [19]: 197
- MFI [20]: 2.8
- MFI [21]: 73.9
- MFI [22]: 25.7
- MFI [23]: 6
- MFI [24]: 4.1
- MFI [25]: 7
- MFI [26]: 156
- MFI [27]: 7.3
- MFI [28]: 6.2
- MFI [29]: 61
- MFI [30]: 3.2
- MFI [31]: 5.6
- MFI [32]: 86.9
- MFI [33]: 4.7
- MFI [34]: 5.1
- MFI [35]: 6.4
- MFI [36]: 6.9
- MFI [37]: 5.7
- MFI [38]: 8.3
- MFI [39]: 6.1
- MFI [40]: 52
- MFI [41]: 6.7
- MFI [42]: 6.1
- MFI [43]: 43.8
- Median : Comp-Alexa Fluor 647-A [44]: 39.9
Substance: isotype matched control mAb (antibody)
